Data from paper PMC11508082.

Target: T1, PdhR-his (Escherichia coli O157:H7 (EHEC) TUV93-0?) (UniProt P0ACM1)
T1 sequence: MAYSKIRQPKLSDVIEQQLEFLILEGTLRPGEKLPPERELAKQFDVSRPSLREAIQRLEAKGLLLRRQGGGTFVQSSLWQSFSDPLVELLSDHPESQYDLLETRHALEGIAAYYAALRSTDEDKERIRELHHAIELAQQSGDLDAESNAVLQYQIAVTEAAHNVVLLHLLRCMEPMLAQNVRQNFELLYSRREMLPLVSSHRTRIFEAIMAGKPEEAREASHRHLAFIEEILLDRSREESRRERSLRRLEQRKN
Experiment: EMSA

Row | Sequence | binding
1 | GGTTCCGATAGAAAGTCCTGGAACAACCGGACCAAAAAGAAAAACCTACCGAGTTGGTAATGGTATTGTGGGACAGTCTAATATCTGGAACGAAATGATCATGAGGCGGAAAAAGGAGAGTTA (double strand) [grlA promoter probe] | no binding
2 | TGTGCACAGTTTCATGATTTCAATCAAAACCTGTATGGACATAAGGTGAATACTTTGTTACTTTAGCGTCACAGACATGAAATTGGTAAGACCAATTGACTTCGGCAAGTGGCTTAAGACAGGAACTCATGGCCTACAGCAAAATCCGCCAACCAAAACTCTCCGATGTGATTGAGCAGC (double strand) [PpdhR promoter probe] | binds
